Experiment in all cases: cell-based or functional assay
In test [1] the target is Tissue Plasminogen Activator (t-PA).
In test [2] the target is human Factor VIIa (FVIIa) and human tissue factor (TF) complex (human, UniProt P08709 61-466; P13726 33-251, limits assumed).
Test [3] has as its target bovine factor Xa (from Sigma) (bovine, UniProt P00743 41-492, limits assumed).
In the next test the target is Plasmin.
Test [4] has as its target bovine trypsin (from Sigma) (bovine, UniProt P00760 24-246).
In test [5] the target is human urokinase (from Sigma) (human, UniProt P00749 21-431, limits assumed).

Non-standard residues stand in square brackets, D forms with d. No end group written: not given here. *: point of attachment. CH2Cl = ClC*

These results are taken from patent US6699869 (MYRIAD GENETICS, dated 2004).

bovine factor Xa (from Sigma), sequence (P00743 41-492 limits assumed): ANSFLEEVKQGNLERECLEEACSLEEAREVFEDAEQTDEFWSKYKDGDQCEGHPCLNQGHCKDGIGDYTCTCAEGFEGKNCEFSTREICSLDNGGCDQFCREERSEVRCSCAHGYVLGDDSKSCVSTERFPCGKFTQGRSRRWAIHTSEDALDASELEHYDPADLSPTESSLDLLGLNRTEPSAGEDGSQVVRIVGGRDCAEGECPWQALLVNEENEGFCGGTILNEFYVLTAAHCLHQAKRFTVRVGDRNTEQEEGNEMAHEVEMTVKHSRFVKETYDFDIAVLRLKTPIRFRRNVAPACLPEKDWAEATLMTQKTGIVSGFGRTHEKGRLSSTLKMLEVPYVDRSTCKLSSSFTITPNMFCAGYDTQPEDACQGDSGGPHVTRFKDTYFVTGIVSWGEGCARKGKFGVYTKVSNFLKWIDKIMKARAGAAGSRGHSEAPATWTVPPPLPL
bovine trypsin (from Sigma), sequence (P00760 24-246): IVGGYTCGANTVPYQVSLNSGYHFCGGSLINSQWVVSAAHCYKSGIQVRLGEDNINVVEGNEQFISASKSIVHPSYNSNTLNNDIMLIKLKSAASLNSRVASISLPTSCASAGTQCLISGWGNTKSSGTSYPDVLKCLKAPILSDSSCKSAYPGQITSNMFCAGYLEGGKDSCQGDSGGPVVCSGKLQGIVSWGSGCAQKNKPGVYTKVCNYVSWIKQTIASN

For [dF]-Pro-Arg-CH2Cl [(D)FPR-CH2Cl], the “IC50 (nM), inhibition of chromogenic substrate hydrolysis by the enzyme” value in test [1] amounted to 106 nM; in test [2] it was 200 nM; in test [3], 165 nM; in the test with Plasmin it was 699 nM; in test [4] it was 212 nM; in test [5] it was 508 nM.
